T1: human ABCC4 (Homo sapiens, UniProt O15439)
T1 construct: expressed in transfected cells
T1 sequence (O15439 1-1325): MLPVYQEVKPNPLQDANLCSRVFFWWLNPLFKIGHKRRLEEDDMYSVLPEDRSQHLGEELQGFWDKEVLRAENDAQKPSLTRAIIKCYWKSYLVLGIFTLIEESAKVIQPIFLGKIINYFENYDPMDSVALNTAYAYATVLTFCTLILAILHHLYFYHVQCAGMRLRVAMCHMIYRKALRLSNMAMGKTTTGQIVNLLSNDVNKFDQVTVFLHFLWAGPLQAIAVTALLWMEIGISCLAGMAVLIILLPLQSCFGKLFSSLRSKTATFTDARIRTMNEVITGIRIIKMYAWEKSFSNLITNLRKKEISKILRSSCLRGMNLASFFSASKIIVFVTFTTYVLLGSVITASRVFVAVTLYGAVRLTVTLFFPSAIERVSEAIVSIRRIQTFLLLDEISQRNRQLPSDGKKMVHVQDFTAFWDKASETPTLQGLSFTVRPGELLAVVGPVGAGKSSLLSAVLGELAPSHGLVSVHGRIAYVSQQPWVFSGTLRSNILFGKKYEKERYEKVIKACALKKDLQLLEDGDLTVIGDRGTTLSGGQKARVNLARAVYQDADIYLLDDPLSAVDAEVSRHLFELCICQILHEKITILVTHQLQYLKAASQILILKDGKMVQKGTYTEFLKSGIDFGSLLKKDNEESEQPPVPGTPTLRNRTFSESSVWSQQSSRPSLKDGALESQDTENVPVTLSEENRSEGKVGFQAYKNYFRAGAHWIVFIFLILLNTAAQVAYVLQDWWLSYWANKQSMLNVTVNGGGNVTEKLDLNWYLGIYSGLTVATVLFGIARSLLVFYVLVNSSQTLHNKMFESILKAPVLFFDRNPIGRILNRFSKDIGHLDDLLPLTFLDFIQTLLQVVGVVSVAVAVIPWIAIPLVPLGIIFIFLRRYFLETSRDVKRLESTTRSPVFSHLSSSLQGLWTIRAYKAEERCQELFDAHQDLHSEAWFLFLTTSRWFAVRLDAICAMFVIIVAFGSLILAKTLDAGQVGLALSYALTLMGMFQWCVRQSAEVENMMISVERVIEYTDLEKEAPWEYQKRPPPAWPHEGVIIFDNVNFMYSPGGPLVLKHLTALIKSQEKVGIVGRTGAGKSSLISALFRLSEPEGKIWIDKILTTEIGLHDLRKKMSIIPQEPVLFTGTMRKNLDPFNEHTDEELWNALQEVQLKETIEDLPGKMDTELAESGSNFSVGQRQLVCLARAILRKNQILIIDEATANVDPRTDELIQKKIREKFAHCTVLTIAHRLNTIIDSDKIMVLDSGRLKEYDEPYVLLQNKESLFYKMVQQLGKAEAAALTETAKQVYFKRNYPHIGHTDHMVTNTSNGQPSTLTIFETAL

B1: C4.961: anti-ABCC4 antibody raised in rats; VH SEQ ID NO: 9, VL SEQ ID NO: 130 (antibody, V domains shown)
VH: EVQLKESGPGLVQPSQTLSLTCAVSGFSLTNYHVHWVRQPPGKGLEWMGVMWSDGDTSYNSALKSRLSISRDTSKSQFFLKMNSLQTEDTATYYCARGGVYFDYWGQGASVTVSS
VL: DIVMTQSPSSLAVSAGETVTINCKSSQSLLYSGNQKNSLAWYQQKPGQSPKLLIYWASTRQSGVPDRFIGSGSGTDFTLTFSSVQAEDLAIYYCQHYFDTPYTFGAGTKLELK
B2: C4.976: anti-ABCC4 antibody raised in rats; VH SEQ ID NO: 12, VL SEQ ID NO: 132 (antibody, V domains shown)
VH: EVKLLESGGGLVQPGRSLKVSCVASGFIFSDYYMAWVRQAPTKGLEWVAYINYDGGSTYYGDSVKGRFTISRDNAKSSLYLQMNSLRFEDMATYYCARRDYGSKFDYWGQGVMVTVSS
VL: EIVIIQSPALAVSLGQRATISCKTNQNVDYYGNSYIHWYQQKPGQQPKLLIYLASNLASGIPARFSGRGSGTDFTLTIDPVEADDPATYYCQQSRNLPFTFGSGTKLELK
B3: C4.927: anti-ABCC4 antibody raised in rats; VH SEQ ID NO: 4, VL SEQ ID NO: 127 (antibody, V domains shown)
VH: EVQLVESGPGLVQPSRTLSLTCTVSGFSLTSYGVSWVRQPPGKGLEWIAAIWSGGSTDYNSALKSRLSISRDTSKSQVLLKMNSLQTEDTAMYFCARGATEGIDYWGQGASVTVSS
VL: AIQVTQSPTSLSASLGDRVTLTCRASQDINNKMAWYQQKPGEVPQLLIYYASTLQSGTPSRFSGSGSGTDFSFTISHLQSEDFATYYCLQGYSLYTFGAGTKLELK
B4: C4.886: anti-ABCC4 antibody raised in rats; VH SEQ ID NO: 2, VL SEQ ID NO: 125 (antibody, V domains shown)
VH: EVKLLESGGDLLQPGRSLKLSCAASGFTFNDYNMAWVRQAPKKGLQWVATILYDGSRTYYRDSVKGRFTISRDNSKSTLYLQMDSLRSEDTATYYCTTEFGYGSSHWFACWGQGTLVTVSS
VL: DVVLTQTPVSLPVSLGGQASISCRSSQSLVHSNGNTYLHWYLQKPGQSPQLLISRISNRFSGVPDRFSGSGSGTDFTLKISRVEPEDLGDYYCFQSTHFPHTFGAGTKLEIK
B5: C4.1155: anti-ABCC4 antibody raised in rats; VH SEQ ID NO: 35, VL SEQ ID NO: 154 (antibody, V domains shown)
VH: EVKLLESGGGLVQPGGSLRLSCATSGFSFTDFYMSWIRQPLGKAPEWLGVIRNRAIGFRTEYNPSVKGRFTISRDNTQNILYLQMNTLRTEDTAIYYCARNNLGFDYWGQGASVTVSS
VL: TPPSLSVAIGQSVSISCKSSQSLVYSDGKTYLHWLLQISGRSPERLIYQVSNLDSGVPDRFSGTGSQKDFTLKISRVEAKDLGFYYCAQTTHFPYTFGAGTKLELK
B6: C4.1146: anti-ABCC4 antibody raised in rats; VH SEQ ID NO: 32, VL SEQ ID NO: 152 (antibody, V domains shown)
VH: EVKLVESGGGLVQPGRSLKLSCAASGFTFSNYDMAWVRQAPTKGLEWVASIIPSGGTSYYRDSVKGRFTVSRDNAKSTLYLQMDSLRSEDTATYYCARLTTSHYYVMDAWGQGASVTVSS
VL: DIWMTKSPSSMSASLGDRVTITCQASQDIGNNLIWFQQKPGKSPRRMIYYATNLANGVPSRFSGSRSGSDYSLTIISLESEDMADYHCLQYKQYPYTFGAGTKLEIK

Tests used:
cynomolgus ABCC4 [1] = test: Flow cytometry (FACS) binding to C6 cells stably transfected to express cynomolgus ABCC4 (different experiment, different C6.cC4 cell line, Table 4); set-up: key to Cynomolgus ABCC4 binding: Negative (−)=Rmax (MFI) below background level; Positive (+)=MFI>3× background level; conditions: for binding to cynomolgus ABCC4 expressed on cell surface: Table 4 study, stated in words; for Cynomolgus ABCC4 binding: different C6.cC4 cell line, C6 cells stably transfected to express cynomolgus ABCC4, FACS, Table 4
Protocol: (§1) Binding titration of recombinant antibodies to ABCC4 transfectants was performed by serial dilution of antibodies from about 666 nM. Diluted antibody in flow cytometry buffer was incubated with cells on ice for 30 min. After 2 washes with flow cytometry buffer, bound antibody was detected with PE-labeled F(ab′)2 fragment goat anti-human IgG (Jackson ImmunoResearch) diluted 1:200 in flow cytometry buffer and incubated with cells for 20 min on ice. After 2 washes with flow cytometry buffer fluorescence was measured on an Attune N×T flow cytometer. Data were analyzed with GraphPad Prism 8.0 software to determine EC50's.
(§2) Human embryonic kidney HEK 293T cells and murine C6 (ATCC CCL-107) were transfected with human or cynomolgus ABCC4 cDNA with C-terminal fused FLAG tag in a pMONO-hygro vector with Lipofectamine 3000 (Invitrogen #L3000001). The cells were treated with 0.2 mg/ml and 0.5 mg/ml hygromycin respectively for about 2 weeks while cultivated in DMEM and 10% FBS with 0.2 mg/ml hygromycin and 0.5 mg/ml hygromycin, respectively. The cells were washed with PBS, and stained with […] of anti-FLAG-PE after fixing and permeablization. Clones expressing ABCC4 were single-cell sorted into 200 μl DMEM with 10% FBS using a BD Aria FACS machine and cultivated in 96 well plates using standard techniques in an incubator at 37° C. and 5% CO 2. Two weeks later clones expressing high levels of ABCC4 were screened and amplified.
(§3) Antibody binding to cells was evaluated by flow cytometry. Murine C6 cells stably transfected to express human or cynomolgus ABCC4 were washed once in flow cytometry buffer (PBS+2% FBS+0.02% sodium azide), resuspended at 2×10^6 cells/mL in flow cytometry buffer, and dispensed into 96-well microtiter plates at 0.1 mL/well. Recombinant antibodies were added to cells at 5 ug/mL for initial binding confirmation, or serially diluted from 100 ug/mL in flow cytometry buffer. After incubating cells on ice for 30 min, cells were washed twice with flow cytometry buffer. Bound antibody was detected with PE-labeled F(ab′)2 fragment goat anti-human IgG (Jackson ImmunoResearch) and evaluated on an Attune N×T flow cytometer. EC50 is calculated to be the concentration of antibody that gives half maximal response.
(§4) In a different experiment, using a different C6.cC4 cell line, detecting the binding of anti-ABCC4 antibodies to C6 cells stably transfected to express human ABCC4 measured by FACS and to C6 cells stably transfected to express cynomolgus ABCC4 measured by FACS, the results set forth in Table 4 were obtained. Negative (−)=Rmax (MFI) below background level. Positive (+)=MFI>3× background level.

human ABCC4 [2] = target: T1, human ABCC4; test: Flow cytometry (FACS) binding to C6 cells stably transfected to express human ABCC4 (Table 3 study); conditions: for Human ABCC4 binding: C6 cells stably transfected to express human ABCC4, FACS, Table 3; for binding to human ABCC4 expressed on cell surface: Table 3 study, stated in words
Protocol: as §1, §2, §3
(§5) Table 3 lists the following characteristics of the rat anti-ABCC4 antibodies tested: binding to C6 cells stably transfected to express human ABCC4 measured by FACS and binding to C6 cells stably transfected to express cynomolgus ABCC4 measured by FACS. Negative (−) is defined as maximum response (Rmax(MFI)) below background level. Positive (+) is defined as MFI>1000.

human ABCC4 [3] = target: T1, human ABCC4; test: Flow cytometry (FACS) binding to C6 cells stably transfected to express human ABCC4 (different experiment, Table 4); conditions: for Human ABCC4 binding: C6 cells stably transfected to express human ABCC4, FACS, different experiment, Table 4; for binding to human ABCC4 expressed on cell surface: Table 4 study, stated in words
Protocol: as §1, §2, §3, §4

cynomolgus ABCC4 [4] = test: Flow cytometry (FACS) binding to C6 cells stably transfected to express cynomolgus ABCC4 (Table 3 study); set-up: key to Cynomolgus ABCC4 binding: Negative (−) is defined as maximum response (Rmax(MFI)) below background level; Positive (+) is defined as MFI>1000; conditions: for Cynomolgus ABCC4 binding: C6 cells stably transfected to express cynomolgus ABCC4, FACS, Table 3; for binding to cynomolgus ABCC4 expressed on cell surface: Table 3 study, stated in words
Protocol: as §1, §2, §3, §5

Molecule | binding to cynomolgus ABCC4 expressed on cell surface (cynomolgus ABCC4 [1]) | Cynomolgus ABCC4 binding (cynomolgus ABCC4 [1]) | Human ABCC4 binding (human ABCC4 [2]) | binding to human ABCC4 expressed on cell surface (human ABCC4 [2]) | Human ABCC4 binding (human ABCC4 [3]) | binding to human ABCC4 expressed on cell surface (human ABCC4 [3]) | Cynomolgus ABCC4 binding (cynomolgus ABCC4 [4]) | binding to cynomolgus ABCC4 expressed on cell surface (cynomolgus ABCC4 [4])
B1 | bind to both human and cynomolgus ABCC4 | + (Positive (+)=MFI>3× background level) | + (Positive (+) is defined as MFI>1000) | bind to both human and cynomolgus ABCC4 | + (Positive (+)=MFI>3× background level) | bind to both human and cynomolgus ABCC4 | + (Positive (+) is defined as MFI>1000) | bind to both human and cynomolgus ABCC4
B2 | bind to both human and cynomolgus ABCC4 | + (Positive (+)=MFI>3× background level) | + (Positive (+) is defined as MFI>1000) | bind to both human and cynomolgus ABCC4 | + (Positive (+)=MFI>3× background level) | bind to both human and cynomolgus ABCC4 | + (Positive (+) is defined as MFI>1000) | bind to both human and cynomolgus ABCC4
B3 |  | − |  |  | + (Positive (+)=MFI>3× background level) |  |  | 
B4 | bind to both human and cynomolgus ABCC4 | + (Positive (+)=MFI>3× background level) | + (Positive (+) is defined as MFI>1000) |  | + (Positive (+)=MFI>3× background level) | bind to both human and cynomolgus ABCC4 | − | 
B5 |  | − |  |  | + (Positive (+)=MFI>3× background level) |  |  | 
B6 |  | − |  |  | + (Positive (+)=MFI>3× background level) |  |  | 
